Laboratory results reported in patent publication US20080213836.

Key:
[1] = biological target: Human plasma fibronectin, P02751
[2] = biological target: T1, human high-molecular-weight (HMW) kininogen, P01042
T1 chain: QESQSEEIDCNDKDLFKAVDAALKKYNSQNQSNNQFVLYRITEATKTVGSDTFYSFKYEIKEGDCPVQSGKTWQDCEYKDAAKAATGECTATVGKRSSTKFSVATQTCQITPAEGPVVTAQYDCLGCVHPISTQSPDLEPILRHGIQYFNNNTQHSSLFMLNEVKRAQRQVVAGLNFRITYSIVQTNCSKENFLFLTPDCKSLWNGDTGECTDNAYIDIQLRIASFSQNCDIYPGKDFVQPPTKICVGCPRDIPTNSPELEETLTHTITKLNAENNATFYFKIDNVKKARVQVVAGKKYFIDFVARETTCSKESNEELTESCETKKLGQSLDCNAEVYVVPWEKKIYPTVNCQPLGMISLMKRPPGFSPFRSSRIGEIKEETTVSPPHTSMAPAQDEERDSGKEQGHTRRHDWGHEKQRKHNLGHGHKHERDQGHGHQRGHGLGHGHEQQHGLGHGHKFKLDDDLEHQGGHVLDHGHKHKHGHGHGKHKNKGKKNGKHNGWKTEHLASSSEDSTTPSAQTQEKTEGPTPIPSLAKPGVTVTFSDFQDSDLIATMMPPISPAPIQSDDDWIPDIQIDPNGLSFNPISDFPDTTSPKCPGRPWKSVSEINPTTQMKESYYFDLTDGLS

[3] = biological target: recombinant fusion protein of Medaka trypsinogen
[4] = biological target: T2, Boc-Glu(OBzl)-Ala-Arg-MCA
T2 chain: EAR

[5] = biological target: human single-chain tPA fusion protein with N-terminal His-tag/EP-cleavage site, P00750
human single-chain tPA fusion protein with N-terminal His-tag/EP-cleavage site, P00750, sequence (P00750 whole entry, looked up, the tested form may be a part): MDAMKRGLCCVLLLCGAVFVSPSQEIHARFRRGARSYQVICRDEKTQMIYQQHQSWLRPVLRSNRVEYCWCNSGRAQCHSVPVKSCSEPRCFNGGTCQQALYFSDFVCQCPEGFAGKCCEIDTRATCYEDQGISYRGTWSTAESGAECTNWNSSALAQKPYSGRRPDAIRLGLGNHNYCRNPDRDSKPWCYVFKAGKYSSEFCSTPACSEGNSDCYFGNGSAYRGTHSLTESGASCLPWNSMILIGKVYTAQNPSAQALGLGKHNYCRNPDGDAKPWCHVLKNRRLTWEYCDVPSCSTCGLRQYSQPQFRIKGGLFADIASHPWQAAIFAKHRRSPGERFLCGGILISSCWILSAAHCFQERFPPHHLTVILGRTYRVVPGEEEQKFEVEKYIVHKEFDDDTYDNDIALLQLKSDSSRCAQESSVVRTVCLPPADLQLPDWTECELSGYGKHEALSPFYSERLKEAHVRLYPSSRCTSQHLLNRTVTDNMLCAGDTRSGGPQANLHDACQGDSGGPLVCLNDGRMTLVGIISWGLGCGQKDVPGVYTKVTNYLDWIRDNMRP

human fibrinogen, P02671 = biological target: T3, human fibrinogen, P02671
T3 chain 1: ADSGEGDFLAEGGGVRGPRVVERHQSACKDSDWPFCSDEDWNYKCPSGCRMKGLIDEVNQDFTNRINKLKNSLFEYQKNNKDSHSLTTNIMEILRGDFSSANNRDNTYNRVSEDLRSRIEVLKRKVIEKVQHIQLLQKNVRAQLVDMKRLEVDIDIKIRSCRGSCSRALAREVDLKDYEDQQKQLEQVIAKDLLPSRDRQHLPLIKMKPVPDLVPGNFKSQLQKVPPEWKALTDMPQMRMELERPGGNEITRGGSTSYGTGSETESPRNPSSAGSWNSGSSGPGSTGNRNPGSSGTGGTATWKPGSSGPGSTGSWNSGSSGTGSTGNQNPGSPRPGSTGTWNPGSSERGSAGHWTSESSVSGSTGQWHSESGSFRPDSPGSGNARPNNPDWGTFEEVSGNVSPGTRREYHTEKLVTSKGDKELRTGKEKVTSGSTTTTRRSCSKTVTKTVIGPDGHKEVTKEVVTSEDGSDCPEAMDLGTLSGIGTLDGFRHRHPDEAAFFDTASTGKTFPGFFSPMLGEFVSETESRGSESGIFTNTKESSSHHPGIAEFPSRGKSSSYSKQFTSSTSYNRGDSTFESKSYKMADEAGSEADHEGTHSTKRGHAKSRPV
T3 chain 2: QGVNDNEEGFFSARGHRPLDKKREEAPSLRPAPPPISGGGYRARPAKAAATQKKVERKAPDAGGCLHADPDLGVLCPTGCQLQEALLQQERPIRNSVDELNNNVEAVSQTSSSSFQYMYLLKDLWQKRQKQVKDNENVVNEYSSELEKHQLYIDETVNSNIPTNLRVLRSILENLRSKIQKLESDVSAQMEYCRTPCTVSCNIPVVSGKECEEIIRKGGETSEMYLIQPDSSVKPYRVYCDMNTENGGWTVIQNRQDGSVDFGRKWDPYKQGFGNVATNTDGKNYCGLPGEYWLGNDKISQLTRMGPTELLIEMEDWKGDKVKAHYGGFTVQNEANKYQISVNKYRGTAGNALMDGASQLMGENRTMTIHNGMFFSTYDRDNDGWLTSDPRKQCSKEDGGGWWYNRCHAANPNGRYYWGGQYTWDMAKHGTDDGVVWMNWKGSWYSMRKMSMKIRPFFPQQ
T3 chain 3: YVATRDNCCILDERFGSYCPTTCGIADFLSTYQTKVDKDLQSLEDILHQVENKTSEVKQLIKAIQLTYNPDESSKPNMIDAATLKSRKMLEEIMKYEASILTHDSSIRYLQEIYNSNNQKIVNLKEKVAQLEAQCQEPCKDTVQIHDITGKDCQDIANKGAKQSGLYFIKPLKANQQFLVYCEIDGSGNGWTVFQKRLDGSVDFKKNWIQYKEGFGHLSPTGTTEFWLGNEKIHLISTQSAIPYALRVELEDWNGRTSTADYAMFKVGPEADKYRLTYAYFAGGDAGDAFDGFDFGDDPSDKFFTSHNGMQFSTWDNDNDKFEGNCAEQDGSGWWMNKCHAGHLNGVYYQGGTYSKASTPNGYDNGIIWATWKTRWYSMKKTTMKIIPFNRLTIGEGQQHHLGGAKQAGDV

Pro-Phe-Arg-MCA = biological target: T4, Pro-Phe-Arg-MCA
T4 chain: PFR

Z-Phe-Arg-MCA = biological target: T5, Z-Phe-Arg-MCA
T5 chain: FR

[6] = biological target: T6, recombinant fusion protein of human kallikrein 8 (hK8), O60259
T6 sequence (O60259 whole entry, looked up): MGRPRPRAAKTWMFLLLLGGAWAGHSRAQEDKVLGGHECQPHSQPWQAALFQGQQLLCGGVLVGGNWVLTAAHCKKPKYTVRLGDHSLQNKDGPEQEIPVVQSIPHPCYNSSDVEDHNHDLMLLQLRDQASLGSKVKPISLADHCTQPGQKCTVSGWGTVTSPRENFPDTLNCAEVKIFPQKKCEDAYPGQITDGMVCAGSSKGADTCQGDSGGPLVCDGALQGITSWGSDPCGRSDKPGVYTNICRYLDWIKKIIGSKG

[7] = biological target: recombinant fusion protein of Medaka gelatinase A
[8] = biological target: T7, Gly-Asp-Asp-Asp-Asp-Lys-β-naphthylamide
T7 chain: GDDDDK

[9] = biological target: D4K-cleavage site-containing control protein (Novagen)

Human plasma fibronectin, P02751, sequence (P02751 other isoform, or with tags, fused parts or gaps): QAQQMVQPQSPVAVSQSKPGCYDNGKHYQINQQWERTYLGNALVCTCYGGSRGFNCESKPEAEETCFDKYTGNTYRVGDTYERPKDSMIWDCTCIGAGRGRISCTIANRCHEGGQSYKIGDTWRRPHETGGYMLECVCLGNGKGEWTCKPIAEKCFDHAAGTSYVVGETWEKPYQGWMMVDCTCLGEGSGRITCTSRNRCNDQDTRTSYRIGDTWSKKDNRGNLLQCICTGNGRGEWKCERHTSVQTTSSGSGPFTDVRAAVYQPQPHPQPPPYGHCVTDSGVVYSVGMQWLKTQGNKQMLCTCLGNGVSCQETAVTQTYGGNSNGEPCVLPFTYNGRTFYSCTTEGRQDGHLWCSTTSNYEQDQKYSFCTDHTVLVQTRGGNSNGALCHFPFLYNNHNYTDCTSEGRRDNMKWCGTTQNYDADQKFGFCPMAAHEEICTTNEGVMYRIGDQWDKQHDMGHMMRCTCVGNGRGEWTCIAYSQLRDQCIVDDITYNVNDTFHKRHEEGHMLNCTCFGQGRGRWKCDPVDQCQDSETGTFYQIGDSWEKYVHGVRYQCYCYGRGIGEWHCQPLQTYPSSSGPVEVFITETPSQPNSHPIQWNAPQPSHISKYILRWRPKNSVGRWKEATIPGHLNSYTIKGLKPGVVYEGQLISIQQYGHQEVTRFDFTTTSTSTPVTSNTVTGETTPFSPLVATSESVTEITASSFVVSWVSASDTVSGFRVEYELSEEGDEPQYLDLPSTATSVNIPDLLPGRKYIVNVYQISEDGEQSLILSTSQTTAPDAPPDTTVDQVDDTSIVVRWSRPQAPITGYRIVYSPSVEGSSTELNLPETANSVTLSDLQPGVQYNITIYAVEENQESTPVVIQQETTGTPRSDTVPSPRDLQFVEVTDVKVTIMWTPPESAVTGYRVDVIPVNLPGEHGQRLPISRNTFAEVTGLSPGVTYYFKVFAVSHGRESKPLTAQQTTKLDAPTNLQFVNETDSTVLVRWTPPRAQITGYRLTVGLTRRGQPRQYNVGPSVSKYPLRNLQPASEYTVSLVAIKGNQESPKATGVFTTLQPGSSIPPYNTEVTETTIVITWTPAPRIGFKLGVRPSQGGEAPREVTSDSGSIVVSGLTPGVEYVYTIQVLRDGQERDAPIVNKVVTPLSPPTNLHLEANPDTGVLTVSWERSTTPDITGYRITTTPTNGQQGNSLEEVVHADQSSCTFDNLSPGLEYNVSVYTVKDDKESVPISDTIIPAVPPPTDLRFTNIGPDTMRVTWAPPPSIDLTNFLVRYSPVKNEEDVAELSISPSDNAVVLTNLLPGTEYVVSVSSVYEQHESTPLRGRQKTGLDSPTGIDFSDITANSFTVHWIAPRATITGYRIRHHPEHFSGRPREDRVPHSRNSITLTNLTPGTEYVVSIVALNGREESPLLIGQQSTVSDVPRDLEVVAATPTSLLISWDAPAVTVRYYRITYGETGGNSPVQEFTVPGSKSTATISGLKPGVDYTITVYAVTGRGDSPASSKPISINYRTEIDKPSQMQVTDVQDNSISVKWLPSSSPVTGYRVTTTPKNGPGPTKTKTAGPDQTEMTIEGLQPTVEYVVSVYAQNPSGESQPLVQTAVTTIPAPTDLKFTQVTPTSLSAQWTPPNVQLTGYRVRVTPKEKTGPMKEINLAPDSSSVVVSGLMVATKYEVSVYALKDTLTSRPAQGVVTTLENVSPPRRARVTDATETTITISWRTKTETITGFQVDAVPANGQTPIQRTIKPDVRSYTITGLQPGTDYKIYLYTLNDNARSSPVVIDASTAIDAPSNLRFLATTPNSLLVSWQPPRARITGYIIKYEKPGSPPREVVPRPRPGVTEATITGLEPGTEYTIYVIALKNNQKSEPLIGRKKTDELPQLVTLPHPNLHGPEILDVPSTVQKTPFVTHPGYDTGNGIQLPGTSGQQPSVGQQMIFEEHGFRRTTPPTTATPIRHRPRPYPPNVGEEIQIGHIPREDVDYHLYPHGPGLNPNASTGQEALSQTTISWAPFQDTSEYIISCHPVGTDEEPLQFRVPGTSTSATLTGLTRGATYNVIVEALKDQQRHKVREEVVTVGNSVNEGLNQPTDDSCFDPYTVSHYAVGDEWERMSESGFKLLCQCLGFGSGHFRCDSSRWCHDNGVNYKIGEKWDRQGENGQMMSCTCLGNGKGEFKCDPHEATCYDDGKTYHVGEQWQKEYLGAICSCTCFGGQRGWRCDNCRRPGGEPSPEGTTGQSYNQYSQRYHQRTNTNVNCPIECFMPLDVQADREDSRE

B1: Medaka EP-1 serine protease domain mutant E173A (protein)
chain: VVGGVNAEKGAWPWMVSLHWRGRHGCGASLIGRDWLLTAAHCVYGKNTHLQYWSAVLGLHAQSSMNSQEVQIRQVDRIIINKNYNRRTKEADIAMMHLQQPVNFTEWVLPVCLASEDQHFPAGRRCFIAGWGRDAEGGSLPDILQEAEVPLVDQDACQRLLPEYTFTSSMLCAGYPEGGVDSCQGDSGGPLMCLEDARWTLIGVTSFGVGCGRPERPGAYARVSAFTSWIAETRRSSFSDLD
hydrolysis [1]: Neither human fibronectin nor laminin was hydrolyzed by the mutants (data not shown) | hydrolysis (mouse laminin): Neither human fibronectin nor laminin was hydrolyzed by the mutants (data not shown) | nonspecific proteolytic activity [2]: this mutant enzyme still retained a low nonspecific proteolytic activity for protein substrates (HMW kininogen and fibrinogen) | nonspecific proteolytic activity (SDS-PAGE) [2]: The mutant proteases had lower nonspecific proteolytic activity for human HMW kininogen | activation of trypsinogen [3]: the other mutants activated trypsinogen at a reduced rate | conversion of trypsinogen to active enzyme [3]: A total of 12 mutants could convert the recombinant Medaka trypsinogen to its active enzyme (data not shown) | Km [4]: 1000 µM | enzyme activity against wild-type [4]: The same held true for all the other mutants except for F144A | kcat [4]: 0.167 s⁻¹ | kcat/Km (mM^-1 · min^-1) [4]: 10 | D4K cleaving activity [5]: no serious reduction of the D4K cleaving activity for fusion proteins (gelatinase A, hK8, and tPA) | nonspecific proteolytic activity (human fibrinogen, P02671): this mutant enzyme still retained a low nonspecific proteolytic activity for protein substrates (HMW kininogen and fibrinogen) | nonspecific proteolytic activity (SDS-PAGE) (human fibrinogen, P02671): The mutant proteases had lower nonspecific proteolytic activity for ... human fibrinogen | Km (Pro-Phe-Arg-MCA): 1000 µM | enzyme activity against wild-type (Pro-Phe-Arg-MCA): The same held true for all the other mutants except for F144A | kcat (Pro-Phe-Arg-MCA): 0.153 s⁻¹ | kcat/Km (mM^-1 · min^-1) (Pro-Phe-Arg-MCA): 9 | Km (Z-Phe-Arg-MCA): 400 µM | enzyme activity against wild-type (Z-Phe-Arg-MCA): The same held true for all the other mutants except for F144A | kcat (Z-Phe-Arg-MCA): 0.0383 s⁻¹ | kcat/Km (mM^-1 · min^-1) (Z-Phe-Arg-MCA): 6 | D4K cleaving activity [6]: no serious reduction of the D4K cleaving activity for fusion proteins (gelatinase A, hK8, and tPA) | D4K cleaving activity [7]: no serious reduction of the D4K cleaving activity for fusion proteins (gelatinase A, hK8, and tPA) | Km [8]: 300 µM | enzyme activity against wild-type [8]: The same held true for all the other mutants except for F144A | kcat [8]: 5.33 s⁻¹ | kcat/Km (mM^-1 · min^-1) [8]: 1100

B2: Bovine EP serine protease (New England Biolabs) (protein)
chain: IVGGSDSREGAWPWVVALYFDDQQVCGASLVSRDWLVSAAHCVYGRNMEPSKWKAVLGLHMASNLTSPQIETRLIDQIVINPHYNKRRKNNDIAMMHLEMKVNYTDYIQPICLPEENQVFPPGRICSIAGWGALIYQGSTADVLQEADVPLLSNEKCQQQMPEYNITENMVCAGYEAGGVDSCQGDSGGPLMCQENNRWLLAGVTSFGYQCALPNRPGVYARVPRFTEWIQSFLH
proteolytic activity (SDS-PAGE) [1]: these substrates were detectably hydrolyzed by the mammalian proteases | proteolytic activity (SDS-PAGE) (mouse laminin): these substrates were detectably hydrolyzed by the mammalian proteases | nonspecific proteolytic activity (SDS-PAGE) [2]: both of which were degraded noticeably by mammalian EP proteases | Km [4]: 400 µM | kcat [4]: 9.5 s⁻¹ | kcat/Km (mM^-1 · min^-1) [4]: 1400 | proteolytic activity (gelatin zymography) (gelatin): these substrates were detectably hydrolyzed by the mammalian proteases | cleavage of the fusion protein (SDS-PAGE/Western blot) [5]: but not with mammalian ones, showed two polypeptides (53- and 55-kDa) | nonspecific proteolytic activity (SDS-PAGE) (human fibrinogen, P02671): both of which were degraded noticeably by mammalian EP proteases | Km (Pro-Phe-Arg-MCA): 2900 µM | kcat (Pro-Phe-Arg-MCA): 21.7 s⁻¹ | kcat/Km (mM^-1 · min^-1) (Pro-Phe-Arg-MCA): 450 | Km (Z-Phe-Arg-MCA): 400 µM | kcat (Z-Phe-Arg-MCA): 10 s⁻¹ | kcat/Km (mM^-1 · min^-1) (Z-Phe-Arg-MCA): 1500 | cleavage of the fusion protein (SDS-PAGE) [9]: the mammalian enzymes not only produced the two expected polypeptides but also further degraded the products | cleavage of the fusion protein (SDS-PAGE) [7]: the fusion protein was extensively digested by mammalian EP serine proteases | Km [8]: 500 µM | kcat [8]: 25 s⁻¹ | kcat/Km (mM^-1 · min^-1) [8]: 3000

B3: Bovine EP serine protease (Novagen) (protein)
chain: IVGGSDSREGAWPWVVALYFDDQQVCGASLVSRDWLVSAAHCVYGRNMEPSKWKAVLGLHMASNLTSPQIETRLIDQIVINPHYNKRRKNNDIAMMHLEMKVNYTDYIQPICLPEENQVFPPGRICSIAGWGALIYQGSTADVLQEADVPLLSNEKCQQQMPEYNITENMVCAGYEAGGVDSCQGDSGGPLMCQENNRWLLAGVTSFGYQCALPNRPGVYARVPRFTEWIQSFLH
proteolytic activity (SDS-PAGE) [1]: these substrates were detectably hydrolyzed by the mammalian proteases | proteolytic activity (SDS-PAGE) (mouse laminin): these substrates were detectably hydrolyzed by the mammalian proteases | nonspecific proteolytic activity (SDS-PAGE) [2]: both of which were degraded noticeably by mammalian EP proteases | Km [4]: 500 µM | kcat [4]: 12.3 s⁻¹ | kcat/Km (mM^-1 · min^-1) [4]: 1500 | proteolytic activity (gelatin zymography) (gelatin): these substrates were detectably hydrolyzed by the mammalian proteases | cleavage of the fusion protein (SDS-PAGE/Western blot) [5]: but not with mammalian ones, showed two polypeptides (53- and 55-kDa) | nonspecific proteolytic activity (SDS-PAGE) (human fibrinogen, P02671): both of which were degraded noticeably by mammalian EP proteases | Km (Pro-Phe-Arg-MCA): 4000 µM | kcat (Pro-Phe-Arg-MCA): 13.2 s⁻¹ | kcat/Km (mM^-1 · min^-1) (Pro-Phe-Arg-MCA): 200 | Km (Z-Phe-Arg-MCA): 500 µM | kcat (Z-Phe-Arg-MCA): 12 s⁻¹ | kcat/Km (mM^-1 · min^-1) (Z-Phe-Arg-MCA): 1400 | cleavage of the fusion protein (SDS-PAGE) [9]: the mammalian enzymes not only produced the two expected polypeptides but also further degraded the products | cleavage of the fusion protein (SDS-PAGE) [7]: the fusion protein was extensively digested by mammalian EP serine proteases | Km [8]: 800 µM | kcat [8]: 12.8 s⁻¹ | kcat/Km (mM^-1 · min^-1) [8]: 960
